Results as given in PMC4027167, “The histone chaperones Vps75 and Nap1 form ring-like, tetrameric structures in solution” (Nucleic Acids Research, 2014).

How the values were obtained:
[1] = target: T1, Rtt109 (UniProt Q07794 1-436); assay: PELDOR; 100 μM Vps75 Y35RX2 dimer with Rtt109 at ratios 2:0, 2:0.25, 2:0.5 and 2:1 (Vps75:Rtt109); details: both partners purified
T1 construct: expressed from a pET28a-derived vector, a gift from Paul Kaufman; also called histone acetyltransferase Rtt109
T1 sequence: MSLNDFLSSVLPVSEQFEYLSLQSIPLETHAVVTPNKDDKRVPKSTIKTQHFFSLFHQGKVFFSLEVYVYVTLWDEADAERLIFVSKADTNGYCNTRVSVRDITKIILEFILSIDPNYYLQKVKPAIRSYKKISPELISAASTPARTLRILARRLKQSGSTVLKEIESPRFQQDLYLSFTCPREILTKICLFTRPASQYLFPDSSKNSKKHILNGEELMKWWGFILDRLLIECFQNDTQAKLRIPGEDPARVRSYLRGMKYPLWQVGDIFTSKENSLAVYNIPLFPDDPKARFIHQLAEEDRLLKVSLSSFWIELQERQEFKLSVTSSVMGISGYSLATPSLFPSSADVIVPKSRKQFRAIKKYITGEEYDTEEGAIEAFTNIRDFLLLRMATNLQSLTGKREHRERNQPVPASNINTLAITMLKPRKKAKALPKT

[2] = target: the molecule itself; assay: as above

B1: Vps75 Y35RX2 (natural protein, budding yeast, UniProt P53853 1-264, looked up)
chain: MMSDQENENEHAKAFLGLAKAEEEVDAIEREVELCRLNKMKPVYEKRDAYIDEIAEFWKIVLSQHVSFANYIRASDFKYIDTIDKIKVEWLALESEMYDTRDFSITFHFHGIEGDFKEQQVTKVFQIKKGKDDQEDGILTSEPVPIEWPQSYDSINPDLIKDKRSPEGKKKYRQGMKTIFGWFRWTGLKPGKEFPHGDSLASLFSEEIYPFAVKYYAEAQRDLEDEEGESGLSADGDSEDDDGSLGEVDLPLSDEEPSSKKRKV
modifications: 3,4-Bis-MTSL crosslinking spin label (RX2) joining cysteine 35 of the two chains of the dimer; deuterated protein
notes: Vps75 of budding yeast, open reading frame, unique cysteine at position 35; One spin label for each dimer; also called singly labelled Vps75 Y35RX2 dimer; not shown: His6, N-terminal, cleaved
B1: binds [1]; binds [2].
